Source: patent US20130071410A1 (published 2013)

Biological target: T1, human CGRP receptor (CRLR + RAMP1) (human, UniProt Q16602 23-461; O60894 27-148)
T1 construct: also called hCGRP R; huCGRP R
Test: FACS staining of transfected cells

T1 sequence (Q16602 23-461 limits assumed, chain 1 of 2): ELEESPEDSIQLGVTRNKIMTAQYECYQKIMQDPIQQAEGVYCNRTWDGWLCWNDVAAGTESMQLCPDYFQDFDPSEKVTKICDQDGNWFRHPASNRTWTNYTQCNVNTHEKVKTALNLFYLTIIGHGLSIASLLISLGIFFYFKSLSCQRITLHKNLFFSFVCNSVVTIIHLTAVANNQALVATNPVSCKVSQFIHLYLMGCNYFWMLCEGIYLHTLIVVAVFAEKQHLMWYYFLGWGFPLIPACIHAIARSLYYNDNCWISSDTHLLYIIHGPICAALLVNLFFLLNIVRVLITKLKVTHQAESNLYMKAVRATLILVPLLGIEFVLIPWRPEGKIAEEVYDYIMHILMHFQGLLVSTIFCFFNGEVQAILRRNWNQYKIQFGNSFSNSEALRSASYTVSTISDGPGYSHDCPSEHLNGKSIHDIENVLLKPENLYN
T1 sequence (O60894 27-148 limits assumed, chain 2 of 2): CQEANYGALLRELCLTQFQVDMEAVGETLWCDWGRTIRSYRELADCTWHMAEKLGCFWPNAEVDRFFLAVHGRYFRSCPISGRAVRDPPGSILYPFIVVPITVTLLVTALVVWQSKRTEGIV

Ac-WVTHRLAGLLSRSGGVVRCNFVPTDVGPFAF-NH2 (also: Alexa 647 label, site not given here, also called Alexa647-CGRP8-37) [Alexa 647-labeled CGRP8-37 peptide analog]: binds.
